Assay results taken from paper PMC6957217, “Molecular anatomy of the receptor binding module of a bacteriophage long tail fiber” (PLoS Pathogens, 2019).

Biological target: the molecule itself
Test: SEC; Hi-Load 16/60 Superdex-200 in PBS pH 7.4; trimers eluted at the expected 81 kDa size

B1: Phage T4 LTF needle (gp37; amino acids 799–1026), wild type (domain or fragment)
chain: not shown
notes: bacteriophage T4 long tail fiber protein gp37, needle (domains D10 and D11), amino acids 799-1026; pCDF Duet-1 MCS1; also called gp37 needle; WT gp37; source: E. coli BL21 (DE3) pLysS, co-expressed with chaperones gp38 and gp57A, purified (HisTrap, Superdex-200 SEC, trimer peak)
stoichiometry N: 3
